From article PMC4367279, “Comparisons with Amyloid-β Reveal an Aspartate Residue That Stabilizes Fibrils of the Aortic Amyloid Peptide Medin*” (The Journal of Biological Chemistry, 2015)

Molecular target: medin D25N, recombinant (human)
Experiment: thioflavin T fluorescence (aggregation kinetics); 20 uM medin, 20 uM ThT, 30 C, no agitation, 96-well plate, triplicate; 20 mM sodium phosphate, 150 mM NaCl, pH 7.4; sigmoidal fit, slope 1/tau is the rate of polymerization; self-assembly into ThT-responsive aggregates

medin D25N, recombinant (peptide)
rate of polymerization (ThT fit): 1.43 h⁻¹
